System: Escherichia coli TOP10
Experiment: shrunken log2 fold change of peptide-encoding DNA abundance (4.5 h post-induction vs induction); higher = less antimicrobial activity (less host growth inhibition)
Conditions: time post-induction: 4.5 h; library: site-saturation at positions 5, 18, 19, 20
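Further: peptides expressed intracellularly from a pBAD plasmid library in pooled LB shake-flask culture, induced with 0.3% L-arabinose, DNA abundance read by NGS, three biological replicates, DESeq2 with apeglm shrinkage.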

| Sequence | shrunken log2 fold change |
| --- | --- |
| RRIRVRPPRLPRPRPRPFENPRP | -0.0486 |
| RRIRSRPPRLPRPRPRPFHVPRP | -0.108 |
| RRIRIRPPRLPRPRPRPSWTPRP | -0.237 |
| RRIRIRPPRLPRPRPRPWIDPRP | 0.0218 |
| RRIRNRPPRLPRPRPRPYNFPRP | -0.176 |
| RRIRHRPPRLPRPRPRPKNFPRP | -0.0655 |
| RRIRIRPPRLPRPRPRPGRIPRP | 0.0431 |
| RRIRARPPRLPRPRPRPCREPRP | 0.0197 |
| RRIRRRPPRLPRPRPRPNKGPRP | 0.128 |
| RRIRQRPPRLPRPRPRPDKMPRP | 0.021 |
| RRIRFRPPRLPRPRPRPGEMPRP | 0.123 |
| RRIRNRPPRLPRPRPRPCKLPRP | -0.362 |
| RRIRWRPPRLPRPRPRPYMEPRP | -0.101 |
| RRIRYRPPRLPRPRPRPLPCPRP | -0.413 |
| RRIRIRPPRLPRPRPRPQGDPRP | 0.0169 |
| RRIRQRPPRLPRPRPRPSHIPRP | -0.0881 |
| RRIRQRPPRLPRPRPRPWFLPRP | -0.0618 |
| RRIRFRPPRLPRPRPRPPHCPRP | 0.362 |
| RRIRKRPPRLPRPRPRPNCAPRP | 0.873 |
| RRIRKRPPRLPRPRPRPRSYPRP | -0.134 |
| RRIRERPPRLPRPRPRPALPPRP | 0.439 |
| RRIRLRPPRLPRPRPRPVDPPRP | -0.0136 |
| RRIRMRPPRLPRPRPRPAFDPRP | 0.629 |
| RRIRGRPPRLPRPRPRPNYKPRP | 0.211 |
| RRIRMRPPRLPRPRPRPCKAPRP | 0.173 |

| Sequence | shrunken log2 fold change |
| --- | --- |
| RRIRPRPPRLPRPRPRPHFSPRP | -0.108 |
| RRIRKRPPRLPRPRPRPRITPRP | 0.227 |
| RRIRHRPPRLPRPRPRPSKRPRP | 0.0594 |
| RRIRMRPPRLPRPRPRPIYCPRP | -0.163 |
| RRIRRRPPRLPRPRPRPAKMPRP | 0.113 |
| RRIRSRPPRLPRPRPRPLYQPRP | -0.339 |
| RRIRHRPPRLPRPRPRPSPEPRP | -0.0554 |
| RRIRYRPPRLPRPRPRPNTLPRP | -0.704 |
| RRIRQRPPRLPRPRPRPMTTPRP | 3.23 |
| RRIRLRPPRLPRPRPRPMDKPRP | -0.296 |
| RRIRHRPPRLPRPRPRPGCNPRP | -0.175 |
| RRIRRRPPRLPRPRPRPWVVPRP | -0.0166 |
| RRIRLRPPRLPRPRPRPISDPRP | -0.014 |
| RRIRVRPPRLPRPRPRPLTKPRP | 0.044 |
| RRIRRRPPRLPRPRPRPLMYPRP | 0.0279 |
| RRIRGRPPRLPRPRPRPTCEPRP | 1.1 |
| RRIRQRPPRLPRPRPRPYQQPRP | -0.0082 |
| RRIRSRPPRLPRPRPRPRNPPRP | 0.103 |
| RRIRARPPRLPRPRPRPHCLPRP | -0.116 |
| RRIRRRPPRLPRPRPRPVCFPRP | 0.383 |
| RRIRERPPRLPRPRPRPSSVPRP | -0.306 |
| RRIRVRPPRLPRPRPRPWMGPRP | -0.339 |
| RRIRQRPPRLPRPRPRPNIMPRP | -0.462 |
| RRIRKRPPRLPRPRPRPKQRPRP | 0.393 |
| RRIRARPPRLPRPRPRPEYGPRP | 0.11 |

| Sequence | shrunken log2 fold change |
| --- | --- |
| RRIRWRPPRLPRPRPRPTCHPRP | 0.228 |
| RRIRERPPRLPRPRPRPKTCPRP | -0.267 |
| RRIRCRPPRLPRPRPRPSMAPRP | -0.224 |
| RRIRCRPPRLPRPRPRPIANPRP | 0.0422 |
| RRIRVRPPRLPRPRPRPMDWPRP | -0.138 |
| RRIRQRPPRLPRPRPRPVCPPRP | -0.0461 |
| RRIRARPPRLPRPRPRPQCRPRP | -0.161 |
| RRIRFRPPRLPRPRPRPLFMPRP | -0.36 |
| RRIRNRPPRLPRPRPRPCCLPRP | -0.219 |
| RRIRKRPPRLPRPRPRPACNPRP | -0.0224 |
| RRIRTRPPRLPRPRPRPAYIPRP | 0.412 |
| RRIRIRPPRLPRPRPRPMHGPRP | -0.216 |
| RRIRHRPPRLPRPRPRPKQIPRP | -0.0133 |
| RRIRDRPPRLPRPRPRPTHFPRP | -0.0613 |
| RRIRERPPRLPRPRPRPPWCPRP | 0.217 |
| RRIRWRPPRLPRPRPRPGLIPRP | 0.336 |
| RRIRWRPPRLPRPRPRPYVWPRP | -0.0228 |
| RRIRIRPPRLPRPRPRPRSAPRP | 0.0737 |
| RRIRVRPPRLPRPRPRPYTPPRP | -0.645 |
| RRIRWRPPRLPRPRPRPHKIPRP | -0.0312 |
| RRIRERPPRLPRPRPRPCATPRP | 0.0398 |
| RRIRTRPPRLPRPRPRPKTPPRP | -0.0565 |
| RRIRFRPPRLPRPRPRPKKAPRP | 0.173 |
| RRIRDRPPRLPRPRPRPHKAPRP | -0.0142 |
| RRIRERPPRLPRPRPRPEQRPRP | 0.32 |

| Sequence | shrunken log2 fold change |
| --- | --- |
| RRIRFRPPRLPRPRPRPKTDPRP | -0.0282 |
| RRIRTRPPRLPRPRPRPSPEPRP | 0.0171 |
| RRIRHRPPRLPRPRPRPSVYPRP | -0.47 |
| RRIRVRPPRLPRPRPRPQCTPRP | -0.149 |
| RRIRARPPRLPRPRPRPPNTPRP | 0.289 |
| RRIRIRPPRLPRPRPRPFQHPRP | -0.214 |
| RRIRRRPPRLPRPRPRPHALPRP | 0.0116 |
| RRIRARPPRLPRPRPRPFQWPRP | -0.0629 |
| RRIRTRPPRLPRPRPRPCVNPRP | -0.0913 |
| RRIRDRPPRLPRPRPRPGGQPRP | 0.211 |
| RRIRVRPPRLPRPRPRPLGNPRP | -0.424 |
| RRIRSRPPRLPRPRPRPAMSPRP | -0.0932 |
| RRIRHRPPRLPRPRPRPTMAPRP | -0.0607 |
| RRIRIRPPRLPRPRPRPKLKPRP | -0.688 |
| RRIRMRPPRLPRPRPRPCMMPRP | -0.124 |
| RRIRPRPPRLPRPRPRPQGTPRP | 0.306 |
| RRIRHRPPRLPRPRPRPPNSPRP | -0.201 |
| RRIRPRPPRLPRPRPRPQNIPRP | -0.456 |
| RRIRCRPPRLPRPRPRPDACPRP | 0.175 |
| RRIRMRPPRLPRPRPRPVRAPRP | 1.08 |
| RRIRDRPPRLPRPRPRPYGQPRP | -0.0816 |
| RRIRYRPPRLPRPRPRPSANPRP | -0.0919 |
| RRIRNRPPRLPRPRPRPQDYPRP | 0.087 |
| RRIRSRPPRLPRPRPRPEPTPRP | 0.467 |
| RRIRLRPPRLPRPRPRPTDQPRP | 0.0347 |

| Sequence | shrunken log2 fold change |
| --- | --- |
| RRIRTRPPRLPRPRPRPWRYPRP | 0.108 |
| RRIRARPPRLPRPRPRPYLEPRP | 0.982 |
| RRIRTRPPRLPRPRPRPSFCPRP | -0.296 |
| RRIRNRPPRLPRPRPRPGIDPRP | -0.042 |
| RRIRVRPPRLPRPRPRPQPLPRP | -0.109 |
| RRIRMRPPRLPRPRPRPGFYPRP | 0.0157 |
| RRIRRRPPRLPRPRPRPVRTPRP | 0.328 |
| RRIRPRPPRLPRPRPRPDYMPRP | -0.334 |
| RRIRIRPPRLPRPRPRPQSNPRP | -0.197 |
| RRIRARPPRLPRPRPRPRHWPRP | 0.511 |
| RRIRYRPPRLPRPRPRPGQRPRP | 0.212 |
| RRIRDRPPRLPRPRPRPFYWPRP | -0.0675 |
| RRIRFRPPRLPRPRPRPLAIPRP | -0.0726 |
| RRIRDRPPRLPRPRPRPRQDPRP | 0.367 |
| RRIRGRPPRLPRPRPRPAAGPRP | 1.18 |
| RRIRYRPPRLPRPRPRPSDGPRP | -0.327 |
| RRIRHRPPRLPRPRPRPAVRPRP | -0.273 |
| RRIRKRPPRLPRPRPRPACAPRP | 1 |
| RRIRYRPPRLPRPRPRPLFLPRP | -0.171 |
| RRIRTRPPRLPRPRPRPNWHPRP | -0.0773 |
| RRIRRRPPRLPRPRPRPLSVPRP | 0.298 |
| RRIRNRPPRLPRPRPRPYGLPRP | -0.106 |
| RRIRTRPPRLPRPRPRPHPQPRP | -0.116 |
| RRIRWRPPRLPRPRPRPHGSPRP | 0.173 |
| RRIRFRPPRLPRPRPRPQRSPRP | -0.105 |

| Sequence | shrunken log2 fold change |
| --- | --- |
| RRIRFRPPRLPRPRPRPMSRPRP | 0.0534 |
| RRIRLRPPRLPRPRPRPMIFPRP | 0.0629 |
| RRIRDRPPRLPRPRPRPQGIPRP | -0.0548 |
| RRIRSRPPRLPRPRPRPRGTPRP | 0.407 |
| RRIRFRPPRLPRPRPRPSVYPRP | -0.158 |
| RRIRKRPPRLPRPRPRPSQEPRP | -0.0223 |
| RRIRQRPPRLPRPRPRPHEDPRP | 0.0107 |
| RRIRIRPPRLPRPRPRPCKIPRP | -0.293 |
| RRIRTRPPRLPRPRPRPQRGPRP | 0.31 |
| RRIRCRPPRLPRPRPRPDLFPRP | 0.162 |
| RRIRVRPPRLPRPRPRPAQPPRP | 0.228 |
| RRIRNRPPRLPRPRPRPSAFPRP | -0.249 |
| RRIRERPPRLPRPRPRPLRFPRP | 0.493 |
| RRIRSRPPRLPRPRPRPKQMPRP | -0.0354 |
| RRIRRRPPRLPRPRPRPDIAPRP | -0.0619 |
| RRIRPRPPRLPRPRPRPVSRPRP | 0.0925 |
| RRIRRRPPRLPRPRPRPFCVPRP | 1.05 |
| RRIRQRPPRLPRPRPRPWPWPRP | 0.0839 |
| RRIRMRPPRLPRPRPRPNTVPRP | -0.162 |
| RRIRQRPPRLPRPRPRPTFAPRP | 0.209 |
| RRIRRRPPRLPRPRPRPQGGPRP | 0.0141 |
| RRIRLRPPRLPRPRPRPRRDPRP | 0.2 |
| RRIRTRPPRLPRPRPRPDRDPRP | -0.126 |
| RRIRQRPPRLPRPRPRPNRYPRP | -0.0216 |
| RRIRQRPPRLPRPRPRPMRQPRP | -0.0137 |

Reference: the supplement of paper PMC9112550, “Optimization of the antimicrobial peptide Bac7 by deep mutational scanning” (BMC Biology, 2022)
